Data on 167 variants can be found in the RNAGym collection of RNA variant scans (doi:10.7554/elife.80360).

Sequences and labels used below:
B1: Hammerhead Ribozyme (parent)
chain: ACCGGAUGUGCUUUCCGGUCUGAUGAGUCCGUGAGGACGAAACAG

The variants in this series derive from B1. The series can be described thus: self-cleavage, relative activity (ratio to wild type); higher = more cleavage; co-transcriptional.
For G4U A23C, the self-cleavage is 0.257.

As to G4U G36C, the self-cleavage turned out to be 0.313.

Consider G4U G36A, for which the self-cleavage was determined as 0.321.

Consider G4U G36U, for which the self-cleavage stood at 0.267.

G4A A34U: the self-cleavage was 0.49.

Regarding G4A A34G, the self-cleavage stood at 0.378.

Turning to G4A G25C, the self-cleavage is 0.32.

Regarding G4A G25A, the self-cleavage was found to be 0.313.

As for G4A G25U, the self-cleavage stood at 0.316.

Turning to G4U G5U, the self-cleavage amounted to 0.359.

Consider G4U G5C, for which the self-cleavage came to 0.352.

With G4U G5A, the self-cleavage was 0.284.

G4A C30U: the self-cleavage was 0.526.

For the variant G4A C30A, the self-cleavage was 0.379.

Regarding G4A C30G, the self-cleavage was found to be 0.368.

On to G4U G18U, for which the self-cleavage worked out at 0.323.

As to G4U G18C, the self-cleavage worked out at 0.275.

For G4U G18A, the self-cleavage came to 0.297.

Turning to G4U, the self-cleavage was 0.515.

In the case of G4C, the self-cleavage amounted to 0.784.

Consider G4U C20U, for which the self-cleavage amounted to 0.364.

On to G4U C20A, for which the self-cleavage is 0.294.

With G4U C20G, the self-cleavage amounted to 0.272.

For G4C U32G, the self-cleavage worked out at 0.324.

For the variant G4C U32A, the self-cleavage was 0.743.

As to G4C U32C, the self-cleavage amounted to 0.736.

As for G4A G35A, the self-cleavage came to 0.386.

For G4A G35C, the self-cleavage was 0.391.

As for G4A G35U, the self-cleavage worked out at 0.382.

Consider G4C G5U, for which the self-cleavage is 0.418.

As for G4C G5C, the self-cleavage is 0.327.

G4C G5A: the self-cleavage turned out to be 0.365.

For G4C C29G, the self-cleavage came to 0.347.

For G4C C29U, the self-cleavage amounted to 0.567.

For the variant G4C C29A, the self-cleavage came to 0.317.

For G4U G33A, the self-cleavage is 0.608.

Take G4U G33U: the self-cleavage turned out to be 0.576.

Regarding G4U G33C, the self-cleavage came out at 0.416.

With G4U G10U, the self-cleavage stood at 0.558.

Regarding G4U G10C, the self-cleavage worked out at 0.469.

For the variant G4U G10A, the self-cleavage is 0.588.

Regarding G4A G39C, the self-cleavage turned out to be 0.319.

Turning to G4A G39A, the self-cleavage was determined as 0.353.

On to G4A G39U, for which the self-cleavage was 0.26.

Consider G4A U32A, for which the self-cleavage was determined as 0.579.

Regarding G4A U32G, the self-cleavage was found to be 0.436.

For G4A U32C, the self-cleavage is 0.516.

As for G4C G8A, the self-cleavage amounted to 0.543.

As to G4C G8C, the self-cleavage turned out to be 0.592.

As for G4C G8U, the self-cleavage turned out to be 0.353.

Turning to G4C A34G, the self-cleavage stood at 0.596.

For the variant G4C A34U, the self-cleavage came to 0.585.

As for G4C A34C, the self-cleavage came out at 0.679.

As for G4U C29G, the self-cleavage stood at 0.358.

On to G4U C29A, for which the self-cleavage was found to be 0.265.

With G4U C29U, the self-cleavage is 0.413.

In the case of G4C C11A, the self-cleavage stood at 0.67.

With G4C C11G, the self-cleavage was 0.767.

Consider G4C C11U, for which the self-cleavage amounted to 0.331.

For the variant G4U G31A, the self-cleavage stood at 0.612.

Regarding G4U G31U, the self-cleavage was 0.75.

Regarding G4U G31C, the self-cleavage was 0.56.

Regarding G4A C38U, the self-cleavage worked out at 0.453.

With G4A C38G, the self-cleavage was found to be 0.344.

Regarding G4A C38A, the self-cleavage was 0.373.

Consider G4A C43U, for which the self-cleavage worked out at 0.271.

On to G4A C43A, for which the self-cleavage is 0.313.

Turning to G4A C43G, the self-cleavage was 0.29.

For G4A U24C, the self-cleavage worked out at 0.59.

Consider G4A U24A, for which the self-cleavage was found to be 0.682.

As for G4A U24G, the self-cleavage came to 0.546.

For G4U A41C, the self-cleavage stood at 0.276.

On to G4U A41U, for which the self-cleavage was 0.308.

With G4U A41G, the self-cleavage was found to be 0.263.

G4A G17U: the self-cleavage is 0.39.

As for G4A G17A, the self-cleavage turned out to be 0.337.

Consider G4A G17C, for which the self-cleavage was 0.399.

For G4A U21G, the self-cleavage came to 0.374.

With G4A U21C, the self-cleavage was found to be 0.373.

G4A U21A: the self-cleavage worked out at 0.312.

With G4C A26U, the self-cleavage worked out at 0.427.

With G4C A26C, the self-cleavage worked out at 0.289.

On to G4C A26G, for which the self-cleavage is 0.276.

Take G4A G45C: the self-cleavage is 0.393.

For G4A G45A, the self-cleavage stood at 0.348.

Consider G4A G45U, for which the self-cleavage was 0.418.

For G4U G22U, the self-cleavage was determined as 0.296.

Consider G4U G22A, for which the self-cleavage stood at 0.297.

In the case of G4U G22C, the self-cleavage came to 0.345.

G4U C11G: the self-cleavage worked out at 0.52.

With G4U C11A, the self-cleavage was found to be 0.502.

As for G4U C11U, the self-cleavage turned out to be 0.319.

In the case of G4A U13G, the self-cleavage came out at 0.616.

Consider G4A U13A, for which the self-cleavage is 1.01.

For G4A U13C, the self-cleavage turned out to be 0.824.

Turning to G4A C15U, the self-cleavage came out at 0.532.

In the case of G4A C15G, the self-cleavage was found to be 0.419.

Turning to G4A C15A, the self-cleavage came out at 0.443.

Consider G4C G10A, for which the self-cleavage was 0.662.

With G4C G10C, the self-cleavage was determined as 0.436.

On to G4C G10U, for which the self-cleavage worked out at 0.722.

G4U G35C: the self-cleavage came to 0.326.

Consider G4U G35U, for which the self-cleavage came out at 0.388.

On to G4U G35A, for which the self-cleavage was found to be 0.337.

G4A A42C: the self-cleavage stood at 0.335.

Regarding G4A A42U, the self-cleavage was found to be 0.319.

In the case of G4A A42G, the self-cleavage amounted to 0.341.

With G4C U21A, the self-cleavage was 0.309.

For G4C U21C, the self-cleavage worked out at 0.363.

As to G4C U21G, the self-cleavage is 0.239.

In the case of G4A C20A, the self-cleavage stood at 0.402.

Consider G4A C20U, for which the self-cleavage was 0.358.

Consider G4A C20G, for which the self-cleavage was 0.334.

For the variant G4U A34U, the self-cleavage came out at 0.43.

G4U A34C: the self-cleavage came to 0.296.

Take G4U A34G: the self-cleavage was 0.452.

On to G4C G36U, for which the self-cleavage came to 0.281.

In the case of G4C G36C, the self-cleavage came out at 0.247.

Consider G4C G36A, for which the self-cleavage came to 0.282.

For the variant G4C U13C, the self-cleavage was found to be 0.856.

For G4C U13G, the self-cleavage was 0.962.

As to G4C U13A, the self-cleavage is 1.04.

Take G4C C15U: the self-cleavage is 0.557.

On to G4C C15G, for which the self-cleavage came to 0.929.

G4C C15A: the self-cleavage came out at 0.524.

Turning to G4A U28C, the self-cleavage is 0.306.

Turning to G4A U28G, the self-cleavage was found to be 0.341.

Turning to G4A U28A, the self-cleavage worked out at 0.364.

Take G4U A6G: the self-cleavage came to 0.327.

With G4U A6U, the self-cleavage was found to be 0.387.

As to G4U A6C, the self-cleavage amounted to 0.282.

Take G4C G18C: the self-cleavage came out at 0.251.

G4C G18A: the self-cleavage is 0.303.

For the variant G4C G18U, the self-cleavage was 0.284.

Take G4C G25U: the self-cleavage was found to be 0.289.

As for G4C G25C, the self-cleavage amounted to 0.289.

Regarding G4C G25A, the self-cleavage came to 0.307.

As to G4C C38G, the self-cleavage was determined as 0.346.

With G4C C38A, the self-cleavage worked out at 0.478.

Consider G4C C38U, for which the self-cleavage amounted to 0.643.

For the variant G4A G36A, the self-cleavage is 0.367.

As to G4A G36U, the self-cleavage is 0.37.

For G4A G36C, the self-cleavage turned out to be 0.343.

Turning to G4A U12A, the self-cleavage was found to be 0.589.

As to G4A U12C, the self-cleavage came out at 0.305.

Turning to G4A U12G, the self-cleavage amounted to 0.541.

Consider G4C C43A, for which the self-cleavage was 0.285.

Regarding G4C C43U, the self-cleavage was 0.298.

With G4C C43G, the self-cleavage is 0.315.

With G4C U24G, the self-cleavage is 0.599.

Consider G4C U24A, for which the self-cleavage was determined as 0.777.

Turning to G4C U24C, the self-cleavage was 0.631.

Regarding G4C U28G, the self-cleavage came out at 0.326.

With G4C U28A, the self-cleavage came out at 0.297.

For the variant G4C U28C, the self-cleavage is 0.331.

For the variant G4C U14G, the self-cleavage worked out at 0.733.

Regarding G4C U14A, the self-cleavage is 0.512.

For G4C U14C, the self-cleavage came to 0.475.

For G4U C38U, the self-cleavage was 0.315.

With G4U C38A, the self-cleavage amounted to 0.289.

For G4U C38G, the self-cleavage was found to be 0.323.

Consider G4U G27A, for which the self-cleavage was 0.312.

Consider G4U G27U, for which the self-cleavage is 0.294.

With G4U G27C, the self-cleavage worked out at 0.35.

For the variant G4C G27A, the self-cleavage worked out at 0.476.

In the case of G4C G27C, the self-cleavage came to 0.412.

Regarding G4C G27U, the self-cleavage turned out to be 0.326.
